# How the values were obtained:
# [1] = molecular target: purified human complement component C3 (human) (UniProt P01024); test: SPR; BIAcore 3000; C3 or C4 amine-coupled to CM5; VWF A1A2A3 or single A domain perfused at 0-2.0 μM; 10 mM HEPES, 150 mM NaCl, 0.005% Tween-20, pH 7.4, 25°C, 10 µL/min; 1:1 Langmuir and shift baseline models
# [2] = molecular target: purified human complement component C4 (human); test: as above
# [3] = molecular target: recombinant human VWF A1 domain with His tag (human); test: SPR; BIAcore 3000; VWF A1A2A3 or single A domain amine-coupled to CM5; C3 or C4 perfused at 0-2.0 μM; 10 mM HEPES, 150 mM NaCl, 0.005% Tween-20, pH 7.4, 25°C, 10 µL/min; 1:1 Langmuir and shift baseline models
# [4] = molecular target: recombinant human VWF A1A2A3 triple domain with His tag (human); test: as above
# [5] = molecular target: recombinant human VWF A3 domain with His tag (human); test: as above
Kd [1],Kd [2],Kd [3],Kd [4],Kd [5],Substance
100 nM,> 2000 nM,–,–,–,recombinant human VWF A3 domain with His tag (domain or fragment)
> 2000 nM,504 nM,–,–,–,recombinant human VWF A1 domain with His tag (domain or fragment)
–,–,139 nM,> 2000 nM,> 2000 nM,purified human complement component C4 (natural protein)
–,–,252 nM,661 nM,137 nM,purified human complement component C3 (from UniProt P01024 23-667; P01024 672-1663) (natural protein)
232 nM,523 nM,–,–,–,recombinant human VWF A1A2A3 triple domain with His tag (domain or fragment)

# — paper PMC6508891
